Experimental data: publication PMC4497662, “Single Turnover Autophosphorylation Cycle of the PKA RIIβ Holoenzyme” (PLoS Biology, 2015)

Tests used:
[1] = target: T1, PKA catalytic subunit (isoform α), mouse (mouse, UniProt P05132 2-351); experiment: crystal structure; apo RIIβ(1–416, R230K)2:C2 holoenzyme crystals soaked overnight with 5 mM CaCl2 and 1 mM ATP; 2.8 Å; details: both partners purified
[2] = target: the molecule itself; experiment: as above
[3] = target: T1, PKA catalytic subunit (isoform α), mouse; experiment: SPR; GST-RIIβ 102–416 (nonphospho or phospho) captured on an anti-GST antibody CM5 chip (80–120 RU), C-subunit 0.3–200 nM injected; buffer A with 1 mM ADP and 10 mM MgCl2; global fit, 1:1 Langmuir; details: both partners purified
[4] = target: T1, PKA catalytic subunit (isoform α), mouse; experiment: SPR; GST-RIIβ 102–416 wild type and S112A captured on an anti-GST antibody CM5 chip (80 RU), C-subunit 30–0.12 nM injected; buffer A with 1 mM ATP and 10 mM CaCl2; 30 μL/min, 25°C; details: both partners purified
[5] = target: T1, PKA catalytic subunit (isoform α), mouse; experiment: SPR; GST-RIIβ 102–416 (nonphospho or phospho) captured on an anti-GST antibody CM5 chip (80–120 RU), C-subunit 0.3–200 nM injected; buffer A only (chelators EDTA/EGTA, no nucleotide or metal); global fit, 1:1 Langmuir; details: both partners purified
[6] = target: T1, PKA catalytic subunit (isoform α), mouse; experiment: SPR; GST-RIIβ 102–416 (nonphospho, phospho or S112A) captured on an anti-GST antibody CM5 chip (80–120 RU), C-subunit injected; buffer A (20 mM MOPS, 150 mM NaCl, 100 μM EDTA, 100 μM EGTA, 0.01% P20) with 1 mM ATP and 10 mM MgCl2; global fit, 1:1 Langmuir; 25°C stated for the series of Fig 5; details: both partners purified
[7] = target: T1, PKA catalytic subunit (isoform α), mouse; experiment: as above; details: both partners purified; remark: listed apart in the source

binding result [1]	Kd [3] [nM]	koff [3] [s⁻¹]	kon [3] [M⁻¹ s⁻¹]	koff [4] [s⁻¹]	Kd [5] [nM]	koff [5] [s⁻¹]	kon [5] [M⁻¹ s⁻¹]	Kd [6] [nM]	koff [6] [s⁻¹]	kon [6] [M⁻¹ s⁻¹]	binding result [7]	Binder	binding result [2]
binds												RIIβ(1–416, R230K), phosphorylated at Ser112 in the crystal (natural protein, phosphoserine at 112 (after the soak with CaATP), Two copies stand with two C-subunits in the RIIβ2:C2 holoenzyme; also called pRIIβ; RIIβ(R230K); source: E. coli BL21 (DE3), purified (cAMP resin, cGMP elution); holoenzyme crystals soaked with 5 mM CaCl2 and 1 mM ATP) not shown	binds
	0.24	0.00015	640000	~0.0001	0.39	0.00021	530000	0.14	0.0003	2.1e+06		GST-RIIβ 102–416 (nonphosphorylated, wild type) (domain or fragment, rat, UniProt P12369 102-416, looked up, also called nonphospho form of RIIβ; source: E. coli BL21 (DE3), purified (cAMP resin, cGMP elution); cyclic nucleotide-free) PVINRFTRRASVCAEAYNPDEEEDDAESRIIHPKTDDQRNRLQEACKDILLFKNLDPEQMSQVLDAMFEKLVKEGEHVIDQGDDGDNFYVIDRGTFDIYVKCDGVGRCVGNYDNRGSFGELALMYNTPRAATITATSPGALWGLDRVTFRRIIVKNNAKKRKMYESFIESLPFLKSLEVSERLKVVDVIGTKVYNDGEQIIAQGDSADSFFIVESGEVRITMKRKGKSDIEENGAVEIARCLRGQYFGELALVTNKPRAASAHAIGTVKCLAMDVQAFERLLGPCMEIMKRNIATYEEQLVALFGTNMDIVEPTA	
	0.22	0.00012	550000		0.31	0.00011	340000	7	0.00026	38000		phosphorylated GST-RIIβ 102–416 (pRIIβ) (domain or fragment, rat, UniProt P12369 102-416, looked up, phosphoserine at 112, source: E. coli BL21 (DE3), purified; phosphorylated in preformed holoenzyme with C-subunit and MgATP, C-subunit released on the chip with 500 nM cGMP) PVINRFTRRASVCAEAYNPDEEEDDAESRIIHPKTDDQRNRLQEACKDILLFKNLDPEQMSQVLDAMFEKLVKEGEHVIDQGDDGDNFYVIDRGTFDIYVKCDGVGRCVGNYDNRGSFGELALMYNTPRAATITATSPGALWGLDRVTFRRIIVKNNAKKRKMYESFIESLPFLKSLEVSERLKVVDVIGTKVYNDGEQIIAQGDSADSFFIVESGEVRITMKRKGKSDIEENGAVEIARCLRGQYFGELALVTNKPRAASAHAIGTVKCLAMDVQAFERLLGPCMEIMKRNIATYEEQLVALFGTNMDIVEPTA	
											binds	GST-RIIβ 102–416 S112A (domain or fragment, rat, UniProt P12369 102-416, looked up, also called RIIβ(S112A); source: E. coli BL21 (DE3), purified (cAMP resin, cGMP elution); cyclic nucleotide-free) PVINRFTRRAAVCAEAYNPDEEEDDAESRIIHPKTDDQRNRLQEACKDILLFKNLDPEQMSQVLDAMFEKLVKEGEHVIDQGDDGDNFYVIDRGTFDIYVKCDGVGRCVGNYDNRGSFGELALMYNTPRAATITATSPGALWGLDRVTFRRIIVKNNAKKRKMYESFIESLPFLKSLEVSERLKVVDVIGTKVYNDGEQIIAQGDSADSFFIVESGEVRITMKRKGKSDIEENGAVEIARCLRGQYFGELALVTNKPRAASAHAIGTVKCLAMDVQAFERLLGPCMEIMKRNIATYEEQLVALFGTNMDIVEPTA	
